{
  "source": "paper PMC4608764",
  "about": "“The Q Motif Is Involved in DNA Binding but Not ATP Binding in ChlR1 Helicase” (PLoS ONE, 2015)",
  "molecules": {"B1": {"name": "ChlR1 (DDX11), ChlR1-WT (Homo sapiens) (protein)", "chain": "MANETQKVGAIHFPFPFTPYSIQEDFMAELYRVLEAGKIGIFESPTGTGKSLSLICGALSWLRDFEQKKREEEARLLETGTGPLHDEKDESLCLSSSCEGAAGTPRPAGEPAWVTQFVQKKEERDLVDRLKAEQARRKQREERLQQLQHRVQLKYAAKRLRQEEEERENLLRLSREMLETGPEAERLEQLESGEEELVLAEYESDEEKKVASRVDEDEDDLEEEHITKIYYCSRTHSQLAQFVHEVKKSPFGKDVRLVSLGSRQNLCVNEDVKSLGSVQLINDRCVDMQRSRHEKKKGAEEEKPKRRRQEKQAACPFYNHEQMGLLRDEALAEVKDMEQLLALGKEARACPYYGSRLAIPAAQLVVLPYQMLLHAATRQAAGIRLQDQVVIIDEAHNLIDTITGMHSVEVSGSQLCQAHSQLLQYVERYGKRLKAKNLMYLKQILYLLEKFVAVLGGNIKQNPNTQSLSQTGTELKTINDFLFQSQIDNINLFKVQRYCEKSMISRKLFGFTERYGAVFSSREQPKLAGFQQFLQSLQPRTTEALAAPADESQASTLRPASPLMHIQGFLAALTTANQDGRVILSRQGSLSQSTLKFLLLNPAVHFAQVVKECRAVVIAGGTMQPVSDFRQQLLACAGVEAERVVEFSCGHVIPPDNILPLVICSGISNQPLEFTFQKRELPQMMDEVGRILCNLCGVVPGGVVCFFPSYEYLRQVHAHWEKGGLLGRLAARKKIFQEPKSAHQVEQVLLAYSRCIQACGQERGQVTGALLLSVVGGKMSEGINFSDNLGRCVVMVGMPFPNIRSAELQEKMAYLDQTLPRAPGQAPPGKALVENLCMKAVNQSIGRAIRHQKDFASVVLLDQRYARPPVLAKLPAWIRARVEVKATFGPAIAAVQKFHREKSASS"}, "B2": {"name": "Forked duplex (DC26/TSTEM25), fluorescein (dsDNA)", "DNA 1": "TTTTTTTTTTTTTTTTTTTTTTCCCAGTAAAACGACGGCCAGTGC", "DNA 2": "GCACTGGCCGTCGTTTTACGGTCGTGACTGGGAAAACCCTGGCG"}, "B3": {"name": "Forked duplex (DC26/TSTEM25) (dsDNA)", "DNA 1": "B2 DNA 1", "DNA 2": "B2 DNA 2"}},
  "key": {"[1]": {"biological_target": "T1, ChlR1 (DDX11), (Homo sapiens, UniProt Q96FC9, Q23A)", "T1 sequence (Q96FC9 1-906 isoform Q96FC9-2 Q23A)": "B1 chain with Q23A", "assay": "nitrocellulose filter-binding (dot blot) assay"}, "[2]": {"biological_target": "T2, ChlR1 (DDX11), ChlR1-WT (Homo sapiens, UniProt Q96FC9)", "T2 sequence (Q96FC9 1-906 isoform Q96FC9-2)": "B1 chain", "assay": "nitrocellulose filter-binding (dot blot) assay"}, "[3]": {"substrate": "Nc1ncnc2c1ncn2[C@@H]1O[C@H](COP(=O)(O)OP(=O)(O)OP(=O)(O)O)[C@@H](O)[C@H]1O", "assay": "[γ-32P]ATP hydrolysis, thin-layer chromatography", "format": "biochemical, Homo sapiens", "details": "2.1 nM M13mp18 ssDNA, ATP 31-4000 μM, 1 mM Mg acetate, pH 7.5, 37 °C, 30 min, kcat measured separately at 8.5 mM ATP"}, "[4]": {"biological_target": "T3, ChlR1-Q23A (Homo sapiens, UniProt Q96FC9-2 1-906, Q23A)", "T3 sequence": "B1 chain with Q23A", "assay": "fluorescence anisotropy; apparent Kd, no ATP, 21 C, 10 nM DNA; EMSA: 40 mM Tris-HCl pH 7.4, 25 mM KCl, 5 mM MgCl2, 2 mM DTT, 2% glycerol, 100 ng/uL BSA, no ATP, 0.5 nM DNA, room temp 30 min; anisotropy: same buffer, 21 C; filter binding: 25 mM Tris-HCl pH 7.5, 25 mM KOAc, 1 mM Mg(OAc)2, 1 mM DTT, 100 ug/mL BSA, 37 C 30 min", "details": "protein: recombinant; tags: FLAG; fork, 19 bp duplex; 5' ssDNA tail 26 nt (DC26) and 3' ssDNA tail 25 nt (TSTEM25)"}, "[5]": {"biological_target": "T4, ChlR1-WT (Homo sapiens, UniProt Q96FC9-2 1-906)", "T4 sequence": "B1 chain", "assay": "fluorescence anisotropy; apparent Kd, no ATP, 21 C, 10 nM DNA; EMSA: 40 mM Tris-HCl pH 7.4, 25 mM KCl, 5 mM MgCl2, 2 mM DTT, 2% glycerol, 100 ng/uL BSA, no ATP, 0.5 nM DNA, room temp 30 min; anisotropy: same buffer, 21 C; filter binding: 25 mM Tris-HCl pH 7.5, 25 mM KOAc, 1 mM Mg(OAc)2, 1 mM DTT, 100 ug/mL BSA, 37 C 30 min", "details": "protein: recombinant; tags: FLAG; fork, 19 bp duplex; 5' ssDNA tail 26 nt (DC26) and 3' ssDNA tail 25 nt (TSTEM25)"}, "[6]": {"biological_target": "T3, ChlR1-Q23A", "assay": "filter binding; 37 C, 1 mM Mg(OAc)2; EMSA: 40 mM Tris-HCl pH 7.4, 25 mM KCl, 5 mM MgCl2, 2 mM DTT, 2% glycerol, 100 ng/uL BSA, no ATP, 0.5 nM DNA, room temp 30 min; anisotropy: same buffer, 21 C; filter binding: 25 mM Tris-HCl pH 7.5, 25 mM KOAc, 1 mM Mg(OAc)2, 1 mM DTT, 100 ug/mL BSA, 37 C 30 min", "details": "protein: recombinant; tags: FLAG; label: 32P (5' end); fork, 19 bp duplex; 5' ssDNA tail 26 nt (DC26) and 3' ssDNA tail 25 nt (TSTEM25)"}, "[7]": {"biological_target": "T4, ChlR1-WT", "assay": "filter binding; 37 C, 1 mM Mg(OAc)2; EMSA: 40 mM Tris-HCl pH 7.4, 25 mM KCl, 5 mM MgCl2, 2 mM DTT, 2% glycerol, 100 ng/uL BSA, no ATP, 0.5 nM DNA, room temp 30 min; anisotropy: same buffer, 21 C; filter binding: 25 mM Tris-HCl pH 7.5, 25 mM KOAc, 1 mM Mg(OAc)2, 1 mM DTT, 100 ug/mL BSA, 37 C 30 min", "details": "protein: recombinant; tags: FLAG; label: 32P (5' end); fork, 19 bp duplex; 5' ssDNA tail 26 nt (DC26) and 3' ssDNA tail 25 nt (TSTEM25)"}},
  "note": "Changes are numbered by the printed parent chain.",
  "data": [
    {"molecule": "Nc1ncnc2c1ncn2[C@@H]1O[C@H](COP(=O)(O)OP(=O)(O)OP(=O)(O)O)[C@@H](O)[C@H]1O", "note": "[ATP]", "values": [
      {"measurement": "Kd", "setting": "[1]", "result": 43.8, "unit": "nM"},
      {"measurement": "Kd", "setting": "[2]", "result": 51.8, "unit": "nM"}
    ]},
    {"molecule": "B1", "values": [
      {"measurement": "Km", "setting": "[3]", "result": "415.7 ± 58.4", "unit": "µM"},
      {"measurement": "kcat", "setting": "[3]", "result": "1073.3 ± 46.7", "unit": "s⁻¹"}
    ]},
    {"molecule": "B2", "values": [
      {"measurement": "Kd", "setting": "[4]", "result": 1000, "unit": "nM"},
      {"measurement": "Kd", "setting": "[5]", "result": 520, "unit": "nM"}
    ]},
    {"molecule": "B3", "values": [
      {"measurement": "Kd", "setting": "[6]", "result": 398, "unit": "nM"},
      {"measurement": "Kd", "setting": "[7]", "result": 106, "unit": "nM"}
    ]}
  ]
}
